Reference: patent US11857601B2, “Pharmaceutical composition for cancer treatment comprising fusion protein including IL-2 protein and CD80 protein and anticancer drug” (GI INNOVATION, INC., priority 2020, dated 2024)

Assays:
[1] = tested on: effector CD8+ T cells, NK cells, Treg cells; assay: Effect on mouse immune cells in spleen; format: in vivo, C57BL/6 mice; conditions: vs PBS
Procedure: On days 1, 3, 5, 7, and 14 after the injection, the spleen tissues were removed from the mice of each group. Thereafter, for the spleen tissue, the numbers of effector CD8+ T cells, NK cells, and Treg cells were calculated with FACS analysis using respective antibodies, and proportions of effector CD8+ T cells and NK cells with respect to Treg cells were respectively calculated. The information on the antibodies used in each cell analysis is as follows:
Effector CD8+ T cell: PB anti-mouse CD3ε antibody (Biolegend, #155612; KT3.1.1), FITC anti-mouse CD8α antibody (BD, #553031, 53-6.7), PE/Cy7 anti-mouse CD44 antibody (Biolegend, #103030; IM7), APC anti-mouse CD122 antibody (Biolegend, #123214; TM-β1)
NK cell: PB anti-mouse CD3ε antibody (Biolegend, #155612; KT3.1.1), PE anti-mouse NK-1.1 (Biolegend, #108708; PK136)
Treg cell: FITC anti-mouse CD3 antibody (Biolegend, #100204; 17A2), PB anti-mouse CD4 antibody (Biolegend, #100531; RM4-5), PE anti-mouse CD25 antibody (Biolegend, #102008; PC61), APC anti-mouse Foxp3 antibody (Invitrogen, #FJK-16s, 17-5773-82).

CT26 cancer cell line = assay: mGI102-M61 in mice transplanted with CT26 (Exp. Ex. 18); format: in vivo, BALB/c mice; conditions: 12 mg/kg i.v.
Procedure: The tumor size was measured daily.

[2] = tested on: CD8+ T cells and CD4+/FoxP3+ Treg cells; assay: Proliferation of CD8+ T cells and Treg cells in PBMCs (Exp. Ex. 10); format: cell-based, human; conditions: for proliferation of CD4+/FoxP3+ Treg cells: compared with no stimulus and anti-CD3 antibody alone
Procedure: Human PBMCs were purchased from Allcells (Lot #3014928, USA). […] CellTrace CFSE dye was used, which was reacted with the human PBMCs under a light-blocking condition at […] for 20 minutes. The cells were labeled with CFSE by being reacted with 1 μM CellTrace CFSE dye at 37° C. for 20 minutes. CFSE not bound to the cells was removed by being reacted for 5 minutes with a culture medium having a 5-fold volume of the staining reaction solution and then by being centrifuged at 1,300 rpm for 5 minutes. The CFSE-labeled PBMCs were resuspended in the culture medium (RPMI1640 medium containing 10% fetal bovine serum, 10 mM HEPES, 100 U/ml penicillin/streptomycin, 1 mM sodium pyruvate, 55 μM 2-mercaptoethanol, 1 mM non-essential amino acid, and 2 mM L-glutamine), and then added to a 96-well microplate at 1×10^5 cells per well.
The incubated cells were examined for their degree of proliferation by measuring, with FACS analysis using anti-human CD4-PE antibody (BioLegend, USA), anti-human CD8-PE/Cy7 antibody (BioLegend, USA), and anti-human FoxP3-APC antibody (BioLegend, USA), a proportion of CD8+ T cells that had not been labeled with CFSE.

Molecule | proportions of activated CD8+ T cells/Treg cells and NK cells/Treg cells ([1]; 3rd to 7th days after administration) | numbers of CD8+ T cells and NK cells ([1]; 3rd to 14th days after i.v. administration (3, 6 or 12 mg/kg)) | survival rate (CT26 cancer cell line; vs negative control) | Tumor growth inhibition (CT26 cancer cell line; vs negative control (hIgG4)) | proliferation of CD4+/FoxP3+ Treg cells [2] | proportion of CD8+ T cells ([2]; anti-CD3ε 1 μg/ml, 7 days, compared with no stimulus, anti-CD3 antibody alone and GI101C1)
mGI102-M61: mCD80-Fc-IL-2 variant (3M) (R38A, F42A, E61R); SEQ ID NO: 34 (protein, Sequence of fusion protein (mGI102-M61)) MDAMLRGLCCVLLLCGAVFVSPSHAVDEQLSKSVKDKVLLPCRYNSPHEDESEDRIYWQKHDKVVLSVIAGKLKVWPEYKNRTLYDNTTYSLIILGLVLSDRGTYSCVVQKKERGTYEVKHLALVKLSIKADFSTPNITESGNPSADTKRITCFASGGFPKPRFSWLENGRELPGINTTISQDPESELYTISSQLDFNTTRNHTIKCLIKYGDAHVSEDFTWEKPPEDPPDSGSGGGGSGGGGSGGGGSAESKYGPPCPPCPAPEAAGGPSVFLFPPKPKDQLMISRTPEVTCVVVDVSQEDPEVQFNWYVDGVEVHNAKTKPREEQFNSTYRVVSVLTVLHQDWLNGKEYKCKVSNKGLPSSIEKTISKAKGQPREPQVYTLPPSQEEMTKNQVSLTCLVKGFYPSDIAVEWESNGQPENNYKTTPPVLDSDGSFFLYSRLTVDKSRWQEGNVFSCSVLHEALHNHYTQKSLSLSLGGGGGSAPTSSSTKKTQLQLEHLLLDLQMILNGINNYKNPKLTAMLTAKFYMPKKATELKHLQCLERELKPLEEVLNLAQSKNFHLRPRDLISNINVIVLELKGSETTFMCEYADETATIVEFLNRWITFCQSIISTLT | significant increase | significant increase | significant improvement | significant tumor growth inhibition |  | 
GI101C1: comparative fusion protein: human CD80 fragment, Ig hinge, Fc domain; SEQ ID NO: 17 (protein, Sequence of fusion protein (GI101C1)) VIHVTKEVKEVATLSCGHNVSVEELAQTRIYWQKEKKMVLTMMSGDMNIWPEYKNRTIFDITNNLSIVILALRPSDEGTYECVVLKYEKDAFKREHLAEVTLSVKADFPTPSISDFEIPTSNIRRIICSTSGGFPEPHLSWLENGEELNAINTTVSQDPETELYAVSSKLDFNMTTNHSFMCLIKYGHLRVNQTFNWNTTKQEHFPDNGSGGGGSGGGGSGGGGSAESKYGPPCPPCPAPEAAGGPSVFLFPPKPKDQLMISRTPEVTCVVVDVSQEDPEVQFNWYVDGVEVHNAKTKPREEQFNSTYRVVSVLTVLHQDWLNGKEYKCKVSNKGLPSSIEKTISKAKGQPREPQVYTLPPSQEEMTKNQVSLTCLVKGFYPSDIAVEWESNGQPENNYKTTPPVLDSDGSFFLYSRLTVDKSRWQEGNVFSCSVLHEALHNHYTQKSLSLSLG |  |  |  |  | did not exhibit a significant increase | 
GI102-M61: hCD80-Fc-IL-2 variant (3M) (R38A, F42A, E61R); SEQ ID NO: 28 (protein, Sequence of fusion protein (GI102-M61)) VIHVTKEVKEVATLSCGHNVSVEELAQTRIYWQKEKKMVLTMMSGDMNIWPEYKNRTIFDITNNLSIVILALRPSDEGTYECVVLKYEKDAFKREHLAEVTLSVKADFPTPSISDFEIPTSNIRRIICSTSGGFPEPHLSWLENGEELNAINTTVSQDPETELYAVSSKLDFNMTTNHSFMCLIKYGHLRVNQTFNWNTTKQEHFPDNGSGGGGSGGGGSGGGGSAESKYGPPCPPCPAPEAAGGPSVFLFPPKPKDQLMISRTPEVTCVVVDVSQEDPEVQFNWYVDGVEVHNAKTKPREEQFNSTYRVVSVLTVLHQDWLNGKEYKCKVSNKGLPSSIEKTISKAKGQPREPQVYTLPPSQEEMTKNQVSLTCLVKGFYPSDIAVEWESNGQPENNYKTTPPVLDSDGSFFLYSRLTVDKSRWQEGNVFSCSVLHEALHNHYTQKSLSLSLGGGGGSAPTSSSTKKTQLQLEHLLLDLQMILNGINNYKNPKLTAMLTAKFYMPKKATELKHLQCLERELKPLEEVLNLAQSKNFHLRPRDLISNINVIVLELKGSETTFMCEYADETATIVEFLNRWITFCQSIISTLT |  |  |  |  | did not exhibit a significant increase | significant increase
